Data as given in patent US20190276511A1 (BIONTECH RNA PHARMACEUTICALS, published 2019).
Like-named read-outs stand apart in the source and are kept apart here.

T1: OX40-Fc (human, UniProt P43489 29-214)
T1 construct: extracellular domain; hinge included for covalent assembly; also called OX40 receptor-Fc fusion protein; not shown: human Fc gamma 1 region including the hinge region
T1 sequence (looked up): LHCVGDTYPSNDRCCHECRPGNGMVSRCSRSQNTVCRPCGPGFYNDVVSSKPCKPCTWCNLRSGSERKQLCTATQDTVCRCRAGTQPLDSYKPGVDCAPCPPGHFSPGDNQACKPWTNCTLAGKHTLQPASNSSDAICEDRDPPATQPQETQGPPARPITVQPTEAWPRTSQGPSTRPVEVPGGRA

T2: CD27-Fc (human, UniProt P26842 20-191)
T2 construct: extracellular domain; hinge included for covalent assembly; also called CD27 receptor-Fc fusion protein; not shown: human Fc gamma 1 region including the hinge region
T2 sequence (looked up): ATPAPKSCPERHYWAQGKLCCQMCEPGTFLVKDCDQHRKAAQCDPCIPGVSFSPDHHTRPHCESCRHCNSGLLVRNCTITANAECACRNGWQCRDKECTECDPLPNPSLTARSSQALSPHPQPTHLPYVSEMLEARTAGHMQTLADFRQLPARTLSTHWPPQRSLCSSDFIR

T3: OX40 receptor on cells (human, UniProt P43489 29-277)
T3 sequence (looked up): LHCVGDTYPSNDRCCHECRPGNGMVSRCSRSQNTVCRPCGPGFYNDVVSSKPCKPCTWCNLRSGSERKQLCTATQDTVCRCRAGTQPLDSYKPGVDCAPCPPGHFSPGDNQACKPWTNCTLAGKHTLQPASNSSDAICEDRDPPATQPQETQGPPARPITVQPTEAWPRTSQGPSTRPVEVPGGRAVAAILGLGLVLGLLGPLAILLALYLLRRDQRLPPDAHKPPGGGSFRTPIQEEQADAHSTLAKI


How the values were obtained:
OX40-Fc [1] = target: T1, OX40-Fc; assay: ELISA, coated receptor-Fc
Protocol: (§1) Receptor binding of the single-chain Duokines was analyzed by ELISA using fusion proteins of the extracellular region of CD40, CD27, 4-1BB and OX40, respectively, with the human Fcγ1 region including the hinge region for covalent assembly (CD40-Fc, CD27-Fc, 4-1BB-Fc, OX40-Fc). Receptor-Fc fusion proteins (200 ng/well) were coated overnight at 4° C. and remaining binding sites were blocked with PBS, 2% skimmed milk powder (2% MPBS). […] The interactions between scDuokine and receptor were dose-dependent with EC₅₀ values in the low nanomolar ranges (FIG. 11 AB, Tab. 2).

CD40-Fc [2] = target: T4, CD40-Fc (human, UniProt P25942 21-193); assay: ELISA, coated receptor-Fc
T4 construct: extracellular domain; hinge included for covalent assembly; also called CD40 receptor-Fc fusion protein; not shown: human Fc gamma 1 region including the hinge region
T4 sequence (P25942 21-193 limits assumed): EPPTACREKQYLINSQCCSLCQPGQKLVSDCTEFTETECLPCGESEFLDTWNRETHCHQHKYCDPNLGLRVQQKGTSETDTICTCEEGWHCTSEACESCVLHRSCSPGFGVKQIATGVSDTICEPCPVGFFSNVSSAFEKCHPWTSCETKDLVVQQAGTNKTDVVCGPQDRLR
Protocol: as §1

4-1BB-Fc = target: T5, 4-1BB-Fc (human, UniProt Q07011 24-186); assay: ELISA, coated receptor-Fc
T5 construct: extracellular domain; hinge included for covalent assembly; also called 4-1BB receptor-Fc fusion protein; not shown: human Fc gamma 1 region including the hinge region

CD27-Fc [3] = target: T2, CD27-Fc; assay: ELISA, coated receptor-Fc
CD40 receptor on cells [4] = target: T6, CD40 receptor on cells (human, UniProt P25942 21-277); assay: cell-based or functional assay
T6 sequence (P25942 21-277): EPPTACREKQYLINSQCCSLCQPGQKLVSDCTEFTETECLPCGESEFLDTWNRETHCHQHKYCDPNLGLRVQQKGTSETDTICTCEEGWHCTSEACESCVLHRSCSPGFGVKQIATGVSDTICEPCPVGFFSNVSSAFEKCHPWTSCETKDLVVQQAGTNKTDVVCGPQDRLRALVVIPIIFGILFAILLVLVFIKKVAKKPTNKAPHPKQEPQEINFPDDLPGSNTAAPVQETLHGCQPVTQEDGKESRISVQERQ

OX40 receptor on cells [5] = target: T3, OX40 receptor on cells; assay: cell-based or functional assay
OX40-Fc [6] = target: T1, OX40-Fc; assay: ELISA, coated receptor-Fc; remark: listed apart in the source
Protocol: (§2) Receptor binding of the Duokines was analyzed by ELISA using fusion proteins of the extracellular region of CD40, CD27, 4-1BB and OX40, respectively, with the human Fcγ1 region including the hinge region for covalent assembly (CD40-Fc, CD27-Fc, 4-1BB-Fc, OX40-Fc). Receptor-Fc fusion proteins (200 ng/well) were coated overnight at 4° C. and remaining binding sites were blocked with PBS, 2% skimmed milk powder (2% MPBS).

CD27-Fc [7] = target: T2, CD27-Fc; assay: ELISA, coated receptor-Fc; remark: listed apart in the source
Protocol: as §2

CD40-Fc [8] = target: T4, CD40-Fc; assay: ELISA, coated receptor-Fc; remark: listed apart in the source
OX40 receptor on cells [9] = target: T3, OX40 receptor on cells; assay: cell-based or functional assay; remark: listed apart in the source
CD40-Fc [10] = target: T4, CD40-Fc; assay: ELISA, coated receptor-Fc; remark: listed apart in the source
Protocol: as §2

CD40 receptor on cells [11] = target: T6, CD40 receptor on cells; assay: cell-based or functional assay; remark: listed apart in the source

EC50 (OX40-Fc [1])	EC50 (CD40-Fc [2])	binding result (4-1BB-Fc)	binding result (CD27-Fc [3])	Receptor activation (EC50, nM) (CD40 receptor on cells [4])	Receptor activation (EC50, nM) (OX40 receptor on cells [5])	EC50 (OX40-Fc [6])	EC50 (CD27-Fc [7])	binding result (CD40-Fc [8])	Receptor activation (EC50, nM) (OX40 receptor on cells [9])	EC50 (CD40-Fc [10])	Receptor activation (EC50, nM) (CD40 receptor on cells [11])	Binder
1.33 nM	40.2 nM	no binding (tested: 100 nM (FIG. 10))	no binding (tested: 100 nM (FIG. 10))	9.54 nM	0.57 nM	–	–	–	–	–	–	scCD40L-scOX40L (ligand, scDuokine from HEK293, FLAG-purified; VH leader left out; also called single-chain Duokine scCD40L-scOX40L; not shown: N-terminal FLAG tag) GDQNPQIAAHVISEASSKTTSVLQWAEKGYYTMSNNLVTLENGKQLTVKRQGLYYIYAQVTFCSNREASSQAPFIASLCLKSPGRFERILLRAANTHSSAKPCGQQSIHLGGVFELQPGASVFVNVTDPSQVSHGTGFTSFGLLKLGGGSGGGGDQNPQIAAHVISEASSKTTSVLQWAEKGYYTMSNNLVTLENGKQLTVKRQGLYYIYAQVTFCSNREASSQAPFIASLCLKSPGRFERILLRAANTHSSAKPCGQQSIHLGGVFELQPGASVFVNVTDPSQVSHGTGFTSFGLLKLGGGSGGGGDQNPQIAAHVISEASSKTTSVLQWAEKGYYTMSNNLVTLENGKQLTVKRQGLYYIYAQVTFCSNREASSQAPFIASLCLKSPGRFERILLRAANTHSSAKPCGQQSIHLGGVFELQPGASVFVNVTDPSQVSHGTGFTSFGLLKLGGGGSGGGTGGGGSQVSHRYPRIQSIKVQFTEYKKEKGFILTSQKEDEIMKVQNNSVIINCDGFYLISLKGYFSQEVNISLHYQKDEEPLFQLKKVRSVNSLMVASLTYKDKVYLNVTTDNTSLDDFHVNGGELILIHQNPGEFCVLGGGSGGGQVSHRYPRIQSIKVQFTEYKKEKGFILTSQKEDEIMKVQNNSVIINCDGFYLISLKGYFSQEVNISLHYQKDEEPLFQLKKVRSVNSLMVASLTYKDKVYLNVTTDNTSLDDFHVNGGELILIHQNPGEFCVLGGGSGGGQVSHRYPRIQSIKVQFTEYKKEKGFILTSQKEDEIMKVQNNSVIINCDGFYLISLKGYFSQEVNISLHYQKDEEPLFQLKKVRSVNSLMVASLTYKDKVYLNVTTDNTSLDDFHVNGGELILIHQNPGEFCVL
–	–	no binding (tested: 100 nM (FIG. 4))	–	–	–	3.16 nM	6.74 nM	no binding (tested: 100 nM (FIG. 4))	10.2 nM	–	–	CD27L-OX40L (ligand, Duokine from HEK293, FLAG-purified; VH leader left out; homotrimer by SEC; also called Duokine CD27L-OX40L; not shown: N-terminal FLAG tag) SLGWDVAELQLNHTGPQQDPRLYWQGGPALGRSFLHGPELDKGQLRIHRDGIYMVHIQVTLAICSSTTASRHHPTTLAVGICSPASRSISLLRLSFHQGCTIASQRLTPLARGDTLCTNLTGTLLPSRNTDETFFGVQWVRPGGGGSGGGGSGGGGSQVSHRYPRIQSIKVQFTEYKKEKGFILTSQKEDEIMKVQNNSVIINCDGFYLISLKGYFSQEVNISLHYQKDEEPLFQLKKVRSVNSLMVASLTYKDKVYLNVTTDNTSLDDFHVNGGELILIHQNPGEFCVL
–	–	no binding (tested: 100 nM (FIG. 4))	no binding (tested: 100 nM (FIG. 4))	–	–	0.51 nM	–	–	0.7 nM	2.18 nM	16.6 nM	CD40L-OX40L (ligand, Duokine from HEK293, FLAG-purified; VH leader left out; homotrimer by SEC; also called Duokine CD40L-OX40L; not shown: N-terminal FLAG tag) GDQNPQIAAHVISEASSKTTSVLQWAEKGYYTMSNNLVTLENGKQLTVKRQGLYYIYAQVTFCSNREASSQAPFIASLCLKSPGRFERILLRAANTHSSAKPCGQQSIHLGGVFELQPGASVFVNVTDPSQVSHGTGFTSFGLLKLGGGGSGGGGSGGGGSQVSHRYPRIQSIKVQFTEYKKEKGFILTSQKEDEIMKVQNNSVIINCDGFYLISLKGYFSQEVNISLHYQKDEEPLFQLKKVRSVNSLMVASLTYKDKVYLNVTTDNTSLDDFHVNGGELILIHQNPGEFCVL
